The values that follow come from patent publication US20170158768A1 (PENN STATE RESEARCH FOUNDATION, published 2017).

The target in this assay is T1, CD11b (mouse, UniProt P05555 17-1153).
T1 construct: Endogenous protein immunoprecipitated from Raw264.7 macrophage extracts with monoclonal CD11b antibody; Its integrin beta partner is not mentioned
The assay is described as follows: co-immunoprecipitation with monoclonal CD11b antibody, Western blot.

T1 sequence (P05555 17-1153 limits assumed): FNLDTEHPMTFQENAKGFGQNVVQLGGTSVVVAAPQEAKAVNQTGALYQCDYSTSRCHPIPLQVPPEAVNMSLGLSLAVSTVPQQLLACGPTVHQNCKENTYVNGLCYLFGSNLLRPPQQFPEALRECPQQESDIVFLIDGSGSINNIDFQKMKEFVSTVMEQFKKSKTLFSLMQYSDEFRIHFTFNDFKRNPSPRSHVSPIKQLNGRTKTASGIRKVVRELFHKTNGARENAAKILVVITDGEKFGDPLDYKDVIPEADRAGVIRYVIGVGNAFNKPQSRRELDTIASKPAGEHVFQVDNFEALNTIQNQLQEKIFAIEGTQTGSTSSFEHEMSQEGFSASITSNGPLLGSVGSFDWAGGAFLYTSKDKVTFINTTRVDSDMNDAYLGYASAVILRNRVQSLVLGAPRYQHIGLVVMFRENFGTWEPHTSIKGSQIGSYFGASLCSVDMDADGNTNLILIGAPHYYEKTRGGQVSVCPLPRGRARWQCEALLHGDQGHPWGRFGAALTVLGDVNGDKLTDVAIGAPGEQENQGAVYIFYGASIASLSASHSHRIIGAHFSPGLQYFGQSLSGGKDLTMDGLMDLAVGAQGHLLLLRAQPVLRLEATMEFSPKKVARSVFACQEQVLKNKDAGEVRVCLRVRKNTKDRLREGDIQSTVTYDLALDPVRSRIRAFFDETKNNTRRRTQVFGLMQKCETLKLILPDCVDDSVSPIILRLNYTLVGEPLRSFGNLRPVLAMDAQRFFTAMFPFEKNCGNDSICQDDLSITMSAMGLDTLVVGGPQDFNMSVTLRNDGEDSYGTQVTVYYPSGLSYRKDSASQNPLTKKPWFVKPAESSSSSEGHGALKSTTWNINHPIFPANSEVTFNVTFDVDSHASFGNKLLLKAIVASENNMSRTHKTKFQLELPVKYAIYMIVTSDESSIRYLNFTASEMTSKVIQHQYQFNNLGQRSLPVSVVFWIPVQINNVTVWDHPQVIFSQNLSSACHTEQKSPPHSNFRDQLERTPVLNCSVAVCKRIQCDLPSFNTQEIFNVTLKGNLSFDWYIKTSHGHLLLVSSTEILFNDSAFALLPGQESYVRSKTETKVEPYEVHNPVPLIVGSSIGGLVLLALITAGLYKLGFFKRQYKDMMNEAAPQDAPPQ

B1: TLR-2 (receptor, mouse, UniProt Q9QUN7 25-784, looked up)
chain: QESLSCDASGVCDGRSRSFTSIPSGLTAAMKSLDLSFNKITYIGHGDLRACANLQVLILKSSRINTIEGDAFYSLGSLEHLDLSDNHLSSLSSSWFGPLSSLKYLNLMGNPYQTLGVTSLFPNLTNLQTLRIGNVETFSEIRRIDFAGLTSLNELEIKALSLRNYQSQSLKSIRDIHHLTLHLSESAFLLEIFADILSSVRYLELRDTNLARFQFSPLPVDEVSSPMKKLAFRGSVLTDESFNELLKLLRYILELSEVEFDDCTLNGLGDFNPSESDVVSELGKVETVTIRRLHIPQFYLFYDLSTVYSLLEKVKRITVENSKVFLVPCSFSQHLKSLEFLDLSENLMVEEYLKNSACKGAWPSLQTLVLSQNHLRSMQKTGEILLTLKNLTSLDISRNTFHPMPDSCQWPEKMRFLNLSSTGIRVVKTCIPQTLEVLDVSNNNLDSFSLFLPRLQELYISRNKLKTLPDASLFPVLLVMKIRENAVSTFSKDQLGSFPKLETLEAGDNHFVCSCELLSFTMETPALAQILVDWPDSYLCDSPPRLHGHRLQDARPSVLECHQAALVSGVCCALLLLILLVGALCHHFHGLWYLRMMWAWLQAKRKPKKAPCRDVCYDAFVSYSEQDSHWVENLMVQQLENSDPPFKLCLHKRDFVPGKWIIDNIIDSIEKSHKTVFVLSENFVRSEWCKYELDFSHFRLFDENNDAAILVLLEPIERKAIPQRFCKLRKIMNTKTYLEWPLDEGQQEVFWVNLRTAIKS
For the molecule B1, the binding result is “no binding”.

B2: CD36 (receptor, mouse, UniProt Q08857 1-472, looked up)
chain: MGCDRNCGLIAGAVIGAVLAVFGGILMPVGDMLIEKTIKREVVLEEGTTAFKNWVKTGTTVYRQFWIFDVQNPDDVAKNSSKIKVKQRGPYTYRVRYLAKENITQDPEDHTVSFVQPNGAIFEPSLSVGTEDDNFTVLNLAVAAAPHIYQNSFVQVVLNSLIKKSKSSMFQTRSLKELLWGYKDPFLSLVPYPISTTVGVFYPYNDTVDGVYKVFNGKDNISKVAIIESYKGKRNLSYWPSYCDMINGTDAASFPPFVEKSRTLRFFSSDICRSIYAVFGSEIDLKGIPVYRFVLPANAFASPLQNPDNHCFCTEKVISNNCTSYGVLDIGKCKEGKPVYISLPHFLHASPDVSEPIEGLHPNEDEHRTYLDVEPITGFTLQFAKRLQVNILVKPARKIEALKNLKRPYIVPILWLNETGTIGDEKAEMFKTQVTGKIKLLGMVEMALLGIGVVMFVAFMISYCACKSKNGK
B2: the binding result is on record as “no binding”.
